Test results taken from the supplement of paper PMC9170038.

Tested on: MS2 coat protein
Experiment: apparent KD of MS2 coat protein; higher = weaker reporter binding
Details: Eterna round: R107
Method in brief: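 Each design's apparent KD comes from the median of binding-curve fits to its normalised clusters. Those clusters carried RNA switches transcribed on-chip from Illumina sequencing clusters. SNAP-549-labelled MS2 coat protein was titrated onto them in twofold steps (0.7 or 1.5 nM to 3 µM; per step 0.8–1.5 h down to 10–20 min). Conditions were 100 mM Tris-HCl pH 7.5, 80 mM KCl, 4 mM MgCl2, without or with constant ligand.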

[1] = input ligand: theophylline 20 uM
[2] = input ligand: theophylline 2 mM
[3] = input ligand: tryptophan 2.4 mM

Sequence | apparent KD of MS2 coat protein (input ligand: arginine 13.2 mM) [nM] | apparent KD of MS2 coat protein (input ligand: none) [nM] | apparent KD of MS2 coat protein [1] [nM] | apparent KD of MS2 coat protein [2] [nM] | apparent KD of MS2 coat protein [3] [nM]
AUCCCGUGAGCGGCCGCCACUGGAGGCUUUGCGCGACAUGAGGAUCACCCAUGUGUGCCCGGCGUUAGGACCGGGUUCGCGUGGA [#1 Same State - Tryptophan B Attempt #17 (HarryS)] | 29.3 | 25.6 | 71.3 | 65.1 | 34
UGGGUACCGACGGCCGCCACUGACUAUAGACAUGAGGAUCACCCAUGUAGAGAUCCUAGACUACCCAGGACCGGGUCUGGUGCUA [Exclusion Tryptophane B GF6] | 61 | – | 165 | 149 | –
AGCGCAGGUCCUGAUACCAGUGACAUGAGGAUCACCCAUGUCCGAUGGGCCUGCCUCUGACACCCUUGGCAGCAGGGCUUGUGCU [#14 Exclusion-TheophyllineB] | 20 | – | 49.8 | – | 21.3
CCUCAUGAACAUGAGGAUCACCCAUGUACACGAGGACCGGUACGGCCGCCACUCGAAUAACCUAAAUAUAAAUAAUAAUAAUAGG [5' end split MS2] | 14.6 | – | 20.1 | 18.1 | –
GUUGGUUUGCGAAGGAGCGGGUAUGUUUUCUACUGGAUCCUAACAUGAGGAUCACCCAUGUCCCAGGUAGGUCGCGCGGGCUUUG [12.aA] | 35.6 | 38.6 | 75.2 | 54.5 | 45.8
AACUUCGCAUAGGAAAACUAUGUGAAGAAUCGAGGACCGGUACGGCCGCCACUCGUCCUCAACAUGAGGAUCACCCAUGUAAUAA [Mat - Exclusion - Trytophan A - D4] | 22.1 | – | 25.4 | 22.6 | –
UGAACAUGAGGAUCACCCAUGUAGAGGGAAGGAGCGUCGAAGAAGACAGGUAGGUCGCCCAGAAAGAAAUCCUCAUGGAUAAGAA [Same State Arginine A GF2] | 86.2 | 54.4 | 152 | 122 | 69
UCGGAUGCGGCGGCCGCCACUCGCGGAUAACGAUAGCUUAACAUGAGGAUCACCCAUGUGUCAUGGAGGACCGGGCCCAUACCGU [pbpmullin] | 18.8 | – | 36.4 | 26.3 | –
AUACAUGAGGAUCACCCAUGUGAUGGCCGGCGAGGACCGGUACGGCCGCCACUCGUGAUCCGUCCUGAGAGCAAAGCUCUCAGCA [Macete] | 76 | 141 | 258 | 292 | 337
UACAUGAGGAUCACCCAUGUGUAGAGGGAUACCAGUGACAGUAAGCGCCCUUGGCAGCCCGUGAACAAUGGGUGAGCUAAAUAGU [#18 Exclusion-TheophyllineA] | 28.7 | 37.9 | 75.5 | 133 | 57.4
GGACUAACCAGAAGGAGCGACACGCAGAAACUGCAAUUUCCUCCACACGAGGAUCACCCGUGUCAGGUAGGUCGCUGGUUAGUCG | 28.3 | 25.4 | 37.3 | 31 | 26.7
GCACCAGGUACGGAUACCAGAGCAAGCCAAAUGAGUGACCAUGAGGAUCACCCAUGGUUGCUCCCUUGGCAGCCGUACCUGGUGC [ETB NP+V+V2 #13 Diff Apt, +-Same Structure] | 7.28 | 12 | 12.1 | 79 | 10.9
ACAACAUGAGGCGAUACCAGAGGCAACAUGAGGAUCACCCAUGUUCACCCAUGUGAUCACCUCCCUUGGCAGCGCACAUGAGGAU [Same State - Theophylline B #1] | 13.7 | – | 17 | – | 12.3
UGACAUUGCUCAGAUACCAGACAUGAGGAUCACCCAUGUACCAAGAAAACGUACAUAAAUGUCCCUUGGCAGCUGAGCAAUGUCU [TheoBX 10 #MS2Left #Theo2] | 175 | – | 535 | – | 531
UCGUGUGUUUCGGAUACCAGUGAAAUCGAUACAUGAGGAUCACCCAUGUGAGAGGAUGUACACCCUUGGCAGCUGUCUGUAUCUG [asczmullin] | 14.7 | – | 16.8 | – | 12.1
AUUAACAUGAGGAUCACCCAUGUGGCCCACCGAGGACCGGUACGGCCGCCACUCGUCGGAAAGGCUAAAUUUAUGAAGUCCAAAA [theeternabot_sameState_MS2_Trp_A_40] | 18.6 | – | 25.4 | 17 | –

Sequence | apparent KD of MS2 coat protein (input ligand: arginine 13.2 mM) [nM] | apparent KD of MS2 coat protein (input ligand: none) [nM] | apparent KD of MS2 coat protein [1] [nM] | apparent KD of MS2 coat protein [2] [nM] | apparent KD of MS2 coat protein [3] [nM]
AAACAGUCGGACAUGAGGAUCACCCAUGUGCGAGGACCGGUACGGCCGCCACUCGACAAGGGCGGUCCCGAAGCAAACAUACGCG [Enedquceor] | 12.2 | 16.5 | 33.7 | 21.3 | 25.4
GAAAGAUGAGGCGGCAGUACCGAUGUCGAUACCAGCAUGAACAAAUGCCCUUGGCAGCGACAUGAGGAUCACCCAUGUAUCUGCG [Reraatlaan] | 14.5 | – | 16.1 | – | 11.6
GCGCGCGCCGAAAGGCGCGCGUGUUGCGAUACCAGCCCGGAAACGGGCCCUUGGCAGCGCACAUGAGGAUCACCCAUGUCAUGUU [Exclusion - Theophylline A Attempt #1 (HarryS)] | 14.9 | 17.9 | 27.1 | 24.5 | 21.9
UGAGAACAUGUCUUUAAGUUUACCUCUGAUACCAGAUUGAAAGGCAUCCCUUGGCAGCAGCAUACAUGAGGAUCACCCAUGUCCU [theeternabot_exclusion_MS2_Theo_A_12] | 64.4 | – | 119 | – | 88.9
AUCAUAAUAGCCUCGUGUAAUUAAAUGGAACGAGGACCGGUACGGCCGCCACUCGAUAUAAACAUGAGGAUCACCCAUGUAAGCA [JR_ExcTryptoA_Sub004] | 30.5 | – | 44.1 | 58.2 | –
GCACGACAUGAGGAUCACCCAUGUGCCGAUACCAGCCGGAUAUACGGCCCUUGGCAGCGGAGUGGAUCCGGAGGACCAUGGGUAA [Same State Theophylline A GF7] | 2.16 | 236 | 156 | 250 | 92.5
GAUGAACUAUUUGAUACCAGACAACAUGAGGAUCACCCAUGUGCGCGUCGUCCUCUGCCUGUCCCUUGGCAGCAAAUAGUUUAUC [XTheo B #10] | 52.6 | – | 81.8 | – | 36.6
GGGCCCGUAAGCAGGCCCACAGCGGGUGAUACCAGCAAUAAAACUUGCCCUUGGCAGCACACAGCUACAUGAGGAUCACCCAUGU [Mausdi] | 24.3 | – | 59.3 | – | 88.6
AACAUCUGGCGUGAUACCAGCCACAUGAGGAUCACCCAUGUCAACACUCGCAAUUGCGACGGCCCUUGGCAGCACGCAUCCUCAG [Sorioncege] | 49 | – | 34.8 | – | 60.9
GGGCCUGUAAGCAGACCCACAGCGGGUGAUACCAGCAAUAAAACUUGCCCUUGGCAGCACACAGCUACAUGAGGAUCACCCAUGU [Rausis] | 36.4 | – | 92.9 | – | 82.4
AAACGUUGCUCAGAUACCAGACAUGAGGAUCACCCAUGUACCAAGGUACCCGAAAGGAAUGUCCCUUGGCAGCUGAGCAACGAAA [MAT - Exclusion Theophlline B - Mod of Eli - D21] | 11.1 | – | 11.9 | – | 10.4
CGUCGAGACUGAAGGAGCGAGAUAACAACAUUGGGUCUCAACAUGAGGAUCACCCAUGUAUCUCAGGUAGGUCGCGGUGUCACCG [Exclusion Arginine B GF20] | 137 | 330 | 302 | 484 | 298
GGAUAGGACACGGCCGCCACUACCUAGGAUACUAGCAACAUUUGGGUACAAGAGGAUCACCCUUGUAGGACCGGGUGUCCUAUCG | 23.1 | 22.1 | 28 | 25.5 | 59
UUAUGAUGUUCCGAUACCAGCCAUGUGGUUCUAACUUAACAUGAGGAUCACCCAUGUACCGGCCCUUGGCAGCGGAUGUGGAUUA [Flamini] | 12 | – | 14.8 | – | 12.6
CGGCCCUCACGUGAGGAUCACCCACGUGAUACCAGCCUGGAAACAGGCCCUUGGCAGCACUAGGUCAUCAAAGAUGACCAAGCCG [TheoAX 27 #OpenEnded #AlternativeMS2] | 11.8 | 10.7 | 14.1 | 18.9 | 11.3
AGUCACAUGAGGAUCACCCAUGUGCCAGAACGAGGACCGGUACGGCCGCCACUCGAGGCGUCCGUCGACAAUAAUGUGAACUGCA [theeternabot_sameState_MS2_Trp_A_48] | 11.1 | – | 16.7 | 11.6 | –
